Measurements reported in patent publication US20250270343A1 (Alector, published 2025).
Changes are numbered by the printed parent chain.

T1: mouse GPNMB endogenously expressed on B16F10 cells (mouse, UniProt Q99P91 23-574)
T1 construct: whole, on cells; also called moGPNMB
T1 sequence (looked up): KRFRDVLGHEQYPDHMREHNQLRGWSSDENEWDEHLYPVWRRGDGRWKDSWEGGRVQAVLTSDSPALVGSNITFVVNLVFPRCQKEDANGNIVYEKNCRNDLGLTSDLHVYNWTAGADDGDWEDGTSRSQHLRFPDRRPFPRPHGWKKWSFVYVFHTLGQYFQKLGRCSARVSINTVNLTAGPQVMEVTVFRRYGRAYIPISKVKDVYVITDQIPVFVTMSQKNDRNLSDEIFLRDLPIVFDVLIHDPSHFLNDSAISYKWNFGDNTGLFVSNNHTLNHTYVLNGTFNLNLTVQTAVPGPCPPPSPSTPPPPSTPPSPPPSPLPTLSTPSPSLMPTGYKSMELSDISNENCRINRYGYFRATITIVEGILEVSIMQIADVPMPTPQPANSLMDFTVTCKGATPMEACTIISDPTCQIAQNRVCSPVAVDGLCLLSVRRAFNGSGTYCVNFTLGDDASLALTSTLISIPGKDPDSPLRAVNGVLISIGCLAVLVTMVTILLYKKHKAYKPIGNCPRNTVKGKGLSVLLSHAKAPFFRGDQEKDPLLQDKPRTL

T2: soluble cynomolgus GPNMB (recombinant extracellular domain) (cynomolgus, UniProt Q14956 23-499 (human entry), limits assumed)
T2 chain: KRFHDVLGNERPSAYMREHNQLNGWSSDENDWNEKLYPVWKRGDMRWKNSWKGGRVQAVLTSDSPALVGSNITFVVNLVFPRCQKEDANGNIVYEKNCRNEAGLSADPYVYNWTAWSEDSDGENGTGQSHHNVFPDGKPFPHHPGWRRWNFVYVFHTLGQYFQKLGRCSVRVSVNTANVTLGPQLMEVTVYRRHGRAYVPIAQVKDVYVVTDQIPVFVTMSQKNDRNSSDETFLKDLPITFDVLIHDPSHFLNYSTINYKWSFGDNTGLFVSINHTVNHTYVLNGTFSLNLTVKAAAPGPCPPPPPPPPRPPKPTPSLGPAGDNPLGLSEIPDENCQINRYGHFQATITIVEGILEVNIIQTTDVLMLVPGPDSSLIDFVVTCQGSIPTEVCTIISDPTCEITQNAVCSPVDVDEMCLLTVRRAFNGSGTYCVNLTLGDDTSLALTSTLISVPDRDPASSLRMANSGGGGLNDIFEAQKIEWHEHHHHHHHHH

T3: soluble human GPNMB (recombinant extracellular domain) (human, UniProt Q14956 23-498)
T3 construct: also called huGPNMB; recombinant human GPNMB extracellular domain; not shown: C-terminal polyhistidine or Avi-His tag
T3 sequence: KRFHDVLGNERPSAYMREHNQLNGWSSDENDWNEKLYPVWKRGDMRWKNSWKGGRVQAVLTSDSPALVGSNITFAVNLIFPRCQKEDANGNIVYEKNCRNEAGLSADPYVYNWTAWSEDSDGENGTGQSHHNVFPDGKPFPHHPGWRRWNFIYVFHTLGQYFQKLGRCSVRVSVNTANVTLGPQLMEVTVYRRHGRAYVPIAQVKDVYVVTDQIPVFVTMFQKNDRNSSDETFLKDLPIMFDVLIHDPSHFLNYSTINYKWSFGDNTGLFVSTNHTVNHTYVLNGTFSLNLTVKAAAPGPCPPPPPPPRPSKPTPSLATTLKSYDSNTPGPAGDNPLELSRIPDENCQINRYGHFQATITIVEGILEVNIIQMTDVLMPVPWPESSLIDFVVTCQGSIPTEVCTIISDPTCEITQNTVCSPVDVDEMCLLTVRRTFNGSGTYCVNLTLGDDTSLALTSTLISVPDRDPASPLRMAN

B1: anti-GPNMB antibody GPN-11 (antibody, human IgG1, V domains shown)
VH: QVQLQQPGAELVKPGASVKLSCKASGYTFTSYWMHWVKQRPGQGLEWIGEINSSNGRTNYNEKFKTKATLTVDRSSSTAYMQLSSLTSEDSAVYYCARLGYYSGSPYPYYAMDCWGQGTSVTVSS
VL: DIQMTQSPASLSVSVGETVTITCRASENIYSNLAWYQQKQGKSPQLLVYAATNLADGVPSRFSGSGSGTQYSLKINSLQSEDFGSYYCQHFWNTPPTFGGGTKLEIK
notes: chimeric
B2: anti-GPNMB antibody GPN-26 (antibody, human IgG1, V domains shown)
VH: EVQLQQSGPELVKPGASVKISCKASGYSFTGYYMNWVRQSPEKSLEWIGEINPSTGITTYNQKFKAKATLTVDKSSNTAFMQLKSLTSEDSAVYYCARPASWFDYWGQGTLVTVSA
VL: DIQMTQSPSSLSASLGERVSLTCRASQEISGHLSWLQQKPDGTIKRLIYAASTLDSGVPKRFSGSRSGSDYSLTISSLESEDFADYYCLQYASYPYTFGGGTKLEIK
notes: chimeric
B3: anti-GPNMB antibody GPN-25 (antibody, human IgG1, V domains shown)
VH: B2 VH with R38K, S54G, T55S, N77S, F80Y, M81L, D104A
VL: B2 VL with L21F, T22I
notes: chimeric
B4: anti-GPNMB antibody GPN-31 (antibody, human IgG1, V domains shown)
VH: B2 VH with R38K, S44N, S54N, I57G, N77T, F80Y, A97T
VL: B2 VL with S65R, E105A
notes: chimeric
B5: anti-GPNMB antibody GPN-22 (antibody, human IgG1, V domains shown)
VH: QVQLQQPGAERVKPGASVKMSCKASGYTFTSYWITWVKQRPGQGLEWIGDIFPGSGSTNYHEKFKSKATLTVDTSSSTAYMQLSSLTSEDSAVYYCSRGYFGSSFSDYWGQGTSVTVSS
VL: B2 VL with A25T, H32Y, A50S, A51T, Y94S, Y96P, G100S
notes: chimeric
B6: anti-GPNMB antibody GPN-30 (antibody, human IgG1, V domains shown)
VH: EVQLQQSGPELVNPGASVRISCKASGYSFTGYYMNWVKQSPEKSLEWIGEINPNTGFTTYNQNFKAKATLTVDKSSSTAYIQLKSLTSEDSAVYYCTRPSPSFDYWGQGTTLTVSS
VL: B2 VL with V19G
notes: chimeric
B7: anti-GPNMB antibody GPN-07 (antibody, human IgG1, V domains shown)
VH: QVQLQQSGAEQVKPGASVKLSCKASGYTFTSYYMYWVKQRPGQGLEWIGEINPSNGGTYFNEKFKSKATLTVDKSSSTAYMHLSSLTSEDSAVYYCTRGGTYYAYWGQGTLVTVSA
VL: B2 VL with I29M
notes: chimeric
B8: anti-GPNMB antibody GPN-09 (antibody, human IgG1, V domains shown)
VH: B7 VH with Q11L, M34I, S66N, H82Q, T101N
VL: B2 VL with S34G, S52L
notes: chimeric
B9: anti-GPNMB antibody GPN-34 (antibody, human IgG1, V domains shown)
VH: EVKLVESGGGLVQPGRSLKLSCAASGFNFYDYWMGWVRQAPGKGLEWIGEINKDSRTINYTPFLKDRFTISRDNAQNTLYLQMSKLGSEDTAIYYCAREGRVPFDYWGQGVMVTVSS
VL: DIQMTQSPSSMSVSLGDTVTIPCRASQDVGSYVNWFQQKPGKSPRHMIYRATNLADGVPSRFSGSRSGADYSLTISSLESEDVADYHCQQYAEYPLTFGSGTKLEIK
notes: chimeric
B10: anti-GPNMB antibody GPN-08 (antibody, human IgG1, V domains shown)
VH: QVQLQQPGAELVKPGASVKLSCRASGYTFTSYWLHWVKQRPGQGLEWIGEINPSDGRTNYIEKVKTKATLTVDKSSSTAYMQLSSLTSEDSAVYYCARSGGNYAWFAYWGQGTLVTVSA
VL: DIVMTQSHKFMSTSVGDRVSITCKASQDVSPSVAWYQQRPGQSPKLLIYSASYRYTGVPDRFTGSGSGTDFTFTISSVQAEDLAVYYCQQHYSIPLTFGAGTKLELK
notes: chimeric
B11: anti-GPNMB antibody GPN-03 (antibody, human IgG1, V domains shown)
VH: QVQLQQSGPELVKPGASVKLSCKASGYTFTNYYMYWVKQRPGQGLEWIGEINPRNGGTNFNEKFKSKATLTVDKSSSTAYMQLSSLTFEDSAVYYCTTGLAYWGQGTLVTVSA
VL: DVVMTQTPLSLPVSLGDQASISCRSSQSLVHSDGNTYLHWYLQKPGQSPKLLIYKVSTRFSGVPDRFSGSGSGTDFTLKISRVEAEDLGVYFCSQSTHVPWTFGGGTKLEIK
notes: chimeric

biological target: T1, mouse GPNMB endogenously expressed on …; assay: FACS, B16F10 cells
Protocol: Recombinant anti-GPNMB antibodies of the present disclosure were examined for their ability to bind human and/or mouse GPNMB expressed on Freestyle293-huGPNMB+ or B16F10 cells, respectively. B16F10 cells are a murine melanoma cell line from a C57BL/6J mouse that endogenously express high levels of mouse GPNMB. The antibodies were also tested for their ability to bind to a human macrophage cell line (U937 cells) engineered to express human GPNMB. Cells were harvested, plated at 100,000 cells/well in a 96-well round bottom plate, and incubated in 100 μl FACS buffer (PBS containing 2% FBS, 2 mM EDTA) containing anti-GPNMB monoclonal antibodies of the present disclosure for 30 minutes on ice. Cells were then washed and incubated in 100 ul FACS buffer containing 1 μg/ml APC-conjugated anti-human IgG secondary antibody for 30 minutes in ice. Cells were washed twice in cold FACS buffer and acquired on a BD FACS Canto. Data analysis and calculation of MFI values was performed with FlowJo (TreeStar) software version 10.0.7. […]

Row | Binder | MFI fold over background [fold]
1 | B1 | 1
2 | B2 | 1
3 | B3 | 1
4 | B4 | 1
5 | B5 | 1
6 | B6 | 1
7 | B7 | 1
8 | B8 | 1
9 | B9 | 1.1
10 | B10 | 1
11 | B11 | 1.1

Biological target: T2, soluble cynomolgus GPNMB (recombinant …)
Assay: SPR Carterra, Ab immobilized
Protocol: (§1) Binding kinetics of human anti-GPNMB IgG1 antibodies of the present disclosure to human, cynomolgus, and mouse GPNMB were evaluated using a Carterra LSA instrument (Carterra, Salt Lake City, UT). […] A HC200M sensor chip (Carterra) was activated using the single channel flow cell with a 7-minute injection of a 1:1:1 mixture of 100 mM MES pH 5.5, 100 mM sulfo-NHS, 400 mM EDC (all reconstituted in MES pH 5.5; 100 μl of each mixed in vial immediately before running assay). After switching to the multi-channel array flow cell, the antibodies were injected over the activated chip in a 96-spot array for 15 minutes. The remaining unconjugated active groups on the chip were then blocked by injecting 1M Ethanolamine pH 8.5 (Carterra) for 7 minutes using the single channel flow cell.
(§2) After priming with running buffer (HBS-EP+, Teknova) with 0.5 mg/ml BSA (Sigma), the immobilized anti-GPNMB antibodies were tested for their ability to bind to several forms of recombinant GPNMB extracellular domain, including human, cynomolgus, and mouse orthologs as described above. Estimates of affinity were generated by injecting each analyte over the entire antibody array using the single channel flow cell. GPNMB analytes were diluted to 2.5, 7.4, 22, 67, 200, and 600 nM in running buffer, and injected in serial from lowest to highest concentration without regeneration. Two buffer blanks were run between each series (one species per series). Data were processed and analyzed using Kinetics high-throughput kinetics analysis software (Carterra).

Row | Binder | Kd [nM] | koff [s⁻¹] | kon [M⁻¹ s⁻¹]
12 | B1 | 12.1 | 0.00095 | 83000
13 | B2 | 8.9 | 0.00027 | 31000
14 | B3 | 7.4 | 0.0002 | 30000
15 | B4 | 11.2 | 0.00036 | 32000
16 | B5 | 104 | 0.0033 | 32000
17 | B6 | 5.1 | 0.00013 | 26000
18 | B7 | 11.3 | 0.00025 | 22000
19 | B8 | 8.4 | 0.00012 | 14000
20 | B9 | 0.4 | 0.00011 | 250000
21 | B10 | 32.8 | 0.0015 | 48000
22 | B11 | 38.7 | 0.0021 | 54000

biological target: T3, soluble human GPNMB (recombinant …); assay: SPR Carterra, Ab immobilized
Protocol: as §1, §2

Row | Binder | Kd [nM] | koff [s⁻¹] | kon [M⁻¹ s⁻¹]
23 | B1 | 14.4 | 0.00095 | 69000
24 | B2 | 11.1 | 0.00027 | 27000
25 | B3 | 11.4 | 0.00028 | 26000
26 | B4 | 11.7 | 0.00028 | 26000
27 | B5 | 120 | 0.0034 | 28000
28 | B6 | 5 | 0.00012 | 26000
29 | B7 | 16.6 | 0.00029 | 19000
30 | B8 | 9 | 0.00011 | 12000
31 | B9 | 0.4 | 6.3e-05 | 190000
32 | B10 | 36 | 0.0014 | 40000
33 | B11 | 29.6 | 0.0019 | 100000
